First the molecules themselves.
B1: anti-PRL-3 nanobody 26 (VHH)
VHH: QVQLQESGGGLVQPGGSLKLSCVVTGLHYYTEGWFRQAPGKEREGVSCISSSDGRTDYIDSVKGRFTISEDNDNKTVYLQMNTLKPDDTGVYYCVAERGPRGSTWWETYDYWGQGTHVTVSS
notes: also called NB 26; nanobody 26-His; source: E. coli One-Shot BL21 Star DE3 (pMES4), purified (Ni-NTA, Superdex 200); not shown: 6XHis, C-terminal, kept
B2: anti-PRL-3 nanobody 4 (VHH)
VHH: QVQLQESGGGLVQTGGSLRLSCAASQSTYNFDVMGWYRLAPGKQREFLTSITNGGNIYYADSVKGRFTIARDDSKTTMYLEMNSLKPEDTAVYTCYGQTHKPRVTTSWGQGTQVTVSS
notes: also called NB 4; source: E. coli One-Shot BL21 Star DE3 (pMES4), purified (Ni-NTA, Superdex 200); not shown: 6XHis, C-terminal, kept
B3: anti-PRL-3 nanobody 91 (VHH)
VHH: B2 VHH with Y29F
notes: 91 is its standard; also called NB 91; nanobody 91-His; source: E. coli One-Shot BL21 Star DE3 (pMES4), purified (Ni-NTA, Superdex 200); not shown: 6XHis, C-terminal, kept
B4: anti-PRL-3 nanobody 16 (VHH)
VHH: B2 VHH with Y29F, I69T
notes: also called NB 16; source: E. coli One-Shot BL21 Star DE3 (pMES4), purified (Ni-NTA, Superdex 200); not shown: 6XHis, C-terminal, kept
B5: anti-PRL-3 nanobody 19 (VHH)
VHH: QVQLQESGGGLVQAGGSLGLSCAASRSIFNFKVMGWYRQAPGKQRELVASITNSDNTYYADSVKGRFTISREDAKTTMYLEMNSLKPEDTAVYRCYGQNWGLRATTYWGQGTQVTVSS
notes: also called NB 19; source: E. coli One-Shot BL21 Star DE3 (pMES4), purified (Ni-NTA, Superdex 200); not shown: 6XHis, C-terminal, kept
B6: anti-PRL-3 nanobody 84 (VHH)
VHH: B5 VHH with A91T
notes: also called NB 84; source: E. coli One-Shot BL21 Star DE3 (pMES4), purified (Ni-NTA, Superdex 200); not shown: 6XHis, C-terminal, kept

Usually Kd stands for a measure of binding affinity in units of concentration. The koff is the first-order rate constant of dissociation. By kon is commonly meant the second-order rate constant of association.

Residue numbers refer to the chain shown, from its start.

T1 sequence (O75365 1-169): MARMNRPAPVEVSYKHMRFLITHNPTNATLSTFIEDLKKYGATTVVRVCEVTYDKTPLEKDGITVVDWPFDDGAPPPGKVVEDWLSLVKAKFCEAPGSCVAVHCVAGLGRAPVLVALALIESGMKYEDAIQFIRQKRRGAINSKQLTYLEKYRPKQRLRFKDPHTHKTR

This test addresses T1, recombinant PRL-3 (Phosphatase of Regenerating Liver-3) (Homo sapiens, UniProt O75365).
T1 construct: Phosphatase of Regenerating Liver-3 (PRL-3), human cDNA amplified with gene-specific primers and cloned into pSKB3 (NheI/XhoI); also called apo PRL-3; PTP4A family member; source: E. coli One-Shot BL21 Star DE3, purified (Ni-NTA, TEV cleavage, Superdex 200); not shown: 6XHis, N-terminal, cleaved
Briefly: BLI; BLItz; nanobody (626.57 nM) loaded on Anti-Penta-HIS (HIS1K) biosensors; PRL-3 as analyte at six concentrations; association 5 min, dissociation 2 min; 1X kinetics buffer; global fit. The note with it: both partners purified. Background: In BLI a coated tip is dipped into the sample, and binding shifts an interference pattern.
Consider B1, for which the Kd was found to be 28.9 nM, the off-rate constant (koff) was 0.000127 s⁻¹ and the association rate constant (kon) was determined as 4380 M⁻¹ s⁻¹.
The matching figures for B2: 202 nM, 0.000565 s⁻¹ and 2750 M⁻¹ s⁻¹.
The like results for B3 were, in that order, 203 nM, 0.00139 s⁻¹ and 6880 M⁻¹ s⁻¹.
The matching figures for B4: 299 nM, 0.000624 s⁻¹ and 2090 M⁻¹ s⁻¹.
Consider B5, for which the Kd came out at 98.4 nM, the koff came out at 0.000386 s⁻¹ and the association rate constant (kon) was determined as 3920 M⁻¹ s⁻¹.
Consider B6, for which the dissociation constant (Kd) is 101 nM, the koff amounted to 0.000332 s⁻¹ and the on-rate constant (kon) came to 3280 M⁻¹ s⁻¹.

(Values after paper PMC10204944, “Development and characterization of nanobodies that specifically target the oncogenic Phosphatase of Regenerating Liver-3 (PRL-3) and impact its interaction with a known binding partner, CNNM3” (PLOS ONE, 2023).)
